The text below walks through data of patent US20210371536A1 (SEOUL NATIONAL UNIVERSITY R AND DB FOUNDATION, published 2021).

One experiment addresses mPDGFR-β on NIH3T3 cells (mouse, UniProt P05622 32-1098). The experiment in a line: cell-based or functional assay.
The target of experiment [1] is T1, cynomolgus monkey PDGFR-β (Fc chimera) (cynomolgus monkey).
T1 construct: not shown: human Fc (hFc) and its junction to the receptor part
T1 chain: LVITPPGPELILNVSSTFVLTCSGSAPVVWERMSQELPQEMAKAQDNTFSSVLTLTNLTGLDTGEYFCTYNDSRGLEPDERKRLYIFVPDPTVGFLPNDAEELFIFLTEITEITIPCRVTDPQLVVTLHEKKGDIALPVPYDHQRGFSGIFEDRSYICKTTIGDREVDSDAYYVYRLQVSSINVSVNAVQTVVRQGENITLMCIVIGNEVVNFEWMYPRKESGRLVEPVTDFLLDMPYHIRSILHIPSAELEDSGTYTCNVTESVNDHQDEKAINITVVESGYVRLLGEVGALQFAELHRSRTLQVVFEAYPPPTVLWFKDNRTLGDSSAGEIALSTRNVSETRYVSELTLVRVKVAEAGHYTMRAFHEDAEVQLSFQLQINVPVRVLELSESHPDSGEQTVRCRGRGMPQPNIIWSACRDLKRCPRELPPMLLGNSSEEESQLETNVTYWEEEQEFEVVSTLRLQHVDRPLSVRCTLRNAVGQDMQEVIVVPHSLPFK
Nature of the experiment: cross-species ELISA on coated antigen, 100 nM bispecific, HRP-anti-human Cκ detection.

The target of experiment [2] is T2, Sus scrofa PDGFR-β-Fc chimera (Sus scrofa, UniProt Q6QNF3 33-530 (dog entry)).
T2 construct: also called Sus crowfa PDGFR-β; not shown: human Fc (hFc) and its junction to the receptor part
T2 chain: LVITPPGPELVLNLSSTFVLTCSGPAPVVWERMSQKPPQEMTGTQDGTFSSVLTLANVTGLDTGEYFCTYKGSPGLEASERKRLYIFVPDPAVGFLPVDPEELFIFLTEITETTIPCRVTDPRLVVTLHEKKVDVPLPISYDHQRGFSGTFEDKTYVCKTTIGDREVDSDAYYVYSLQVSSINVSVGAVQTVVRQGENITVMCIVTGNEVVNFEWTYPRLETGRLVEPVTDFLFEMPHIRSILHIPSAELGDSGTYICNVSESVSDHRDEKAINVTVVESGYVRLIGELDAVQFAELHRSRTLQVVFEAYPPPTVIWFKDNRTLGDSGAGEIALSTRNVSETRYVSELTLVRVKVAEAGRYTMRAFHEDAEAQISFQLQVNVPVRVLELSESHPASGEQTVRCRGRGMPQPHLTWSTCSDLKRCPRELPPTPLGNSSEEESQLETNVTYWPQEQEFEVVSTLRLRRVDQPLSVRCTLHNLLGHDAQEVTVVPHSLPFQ
The description is as above.

For experiment [3], the target named is hPDGFR-β on human pericyte cells (human, UniProt P09619 33-1106). The experiment in a line: cell-based or functional assay.
hPDGFR-β on human pericyte cells, sequence (P09619 33-1106): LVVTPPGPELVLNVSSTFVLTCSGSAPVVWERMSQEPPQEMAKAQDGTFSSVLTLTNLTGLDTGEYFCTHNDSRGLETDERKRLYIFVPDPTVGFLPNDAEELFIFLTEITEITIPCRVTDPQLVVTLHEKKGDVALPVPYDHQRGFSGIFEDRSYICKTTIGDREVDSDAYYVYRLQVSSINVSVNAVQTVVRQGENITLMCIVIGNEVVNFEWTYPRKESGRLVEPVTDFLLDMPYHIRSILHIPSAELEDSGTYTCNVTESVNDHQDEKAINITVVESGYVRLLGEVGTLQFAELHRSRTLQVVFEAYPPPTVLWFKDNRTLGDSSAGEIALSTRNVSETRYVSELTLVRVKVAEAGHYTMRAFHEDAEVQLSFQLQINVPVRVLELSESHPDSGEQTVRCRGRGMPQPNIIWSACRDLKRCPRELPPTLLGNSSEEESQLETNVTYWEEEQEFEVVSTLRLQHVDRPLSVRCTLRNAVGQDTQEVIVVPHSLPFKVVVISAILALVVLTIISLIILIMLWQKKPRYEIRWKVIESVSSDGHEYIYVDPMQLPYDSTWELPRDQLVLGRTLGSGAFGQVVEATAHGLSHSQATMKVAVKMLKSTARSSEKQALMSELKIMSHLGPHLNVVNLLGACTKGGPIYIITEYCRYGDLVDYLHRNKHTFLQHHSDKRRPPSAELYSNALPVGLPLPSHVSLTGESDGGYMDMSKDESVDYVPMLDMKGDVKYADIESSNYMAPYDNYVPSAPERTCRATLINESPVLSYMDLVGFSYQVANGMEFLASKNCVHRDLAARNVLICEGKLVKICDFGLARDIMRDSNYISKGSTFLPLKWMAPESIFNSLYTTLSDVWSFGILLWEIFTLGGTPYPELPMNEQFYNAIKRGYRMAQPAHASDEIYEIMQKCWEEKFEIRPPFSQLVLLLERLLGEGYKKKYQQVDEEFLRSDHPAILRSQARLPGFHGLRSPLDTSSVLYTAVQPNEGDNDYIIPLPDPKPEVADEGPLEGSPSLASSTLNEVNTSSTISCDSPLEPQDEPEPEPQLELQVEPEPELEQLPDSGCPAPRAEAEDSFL

mPDGFR-β on NIH3T3 cells, sequence (P05622 32-1098): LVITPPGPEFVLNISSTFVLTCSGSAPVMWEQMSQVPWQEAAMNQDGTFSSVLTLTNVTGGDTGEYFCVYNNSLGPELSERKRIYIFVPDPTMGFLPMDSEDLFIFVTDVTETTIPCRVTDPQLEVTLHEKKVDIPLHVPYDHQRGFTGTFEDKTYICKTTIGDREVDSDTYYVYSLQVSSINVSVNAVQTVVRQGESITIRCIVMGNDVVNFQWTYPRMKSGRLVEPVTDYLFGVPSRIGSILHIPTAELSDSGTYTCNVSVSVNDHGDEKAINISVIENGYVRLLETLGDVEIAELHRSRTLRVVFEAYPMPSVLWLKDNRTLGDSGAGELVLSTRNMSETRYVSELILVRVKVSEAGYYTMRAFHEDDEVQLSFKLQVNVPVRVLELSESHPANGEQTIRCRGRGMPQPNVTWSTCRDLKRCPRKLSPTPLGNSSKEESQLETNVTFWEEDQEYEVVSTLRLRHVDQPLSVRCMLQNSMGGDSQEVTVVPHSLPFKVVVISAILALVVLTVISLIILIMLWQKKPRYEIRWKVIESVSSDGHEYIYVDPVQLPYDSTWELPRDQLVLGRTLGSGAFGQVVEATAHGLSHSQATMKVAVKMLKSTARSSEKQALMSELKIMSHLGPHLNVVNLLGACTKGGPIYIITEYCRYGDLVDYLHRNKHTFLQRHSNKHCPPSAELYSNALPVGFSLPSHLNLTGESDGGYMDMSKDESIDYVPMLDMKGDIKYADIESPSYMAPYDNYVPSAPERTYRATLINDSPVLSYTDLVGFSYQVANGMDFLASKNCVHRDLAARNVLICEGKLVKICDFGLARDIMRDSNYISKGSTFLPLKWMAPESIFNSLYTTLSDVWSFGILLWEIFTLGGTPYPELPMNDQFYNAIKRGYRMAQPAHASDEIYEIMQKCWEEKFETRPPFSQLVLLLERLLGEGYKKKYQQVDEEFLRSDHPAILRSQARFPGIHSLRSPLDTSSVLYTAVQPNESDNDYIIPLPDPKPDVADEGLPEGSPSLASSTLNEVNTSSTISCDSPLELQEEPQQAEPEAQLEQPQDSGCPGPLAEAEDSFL

B1: PRb-CN01 x cotinine scFv-Cκ-scFv fusion protein (bispecific antibody) (bispecific antibody)
chain: LTQPSSVSANPGETVKITCSGGSGSYGWFQQKSPGSAPVTVIYSNNQRPSDIPSRFSGSKSGSTNTLTITGVQAEDEAIYYCGTRDSSYVGIFGAGTTLTVLGQSSRSSGGGGSSGGGGSAVTLDESGGGLQTPGGALSLVCKASGFTFSDRAMHWVRQAPGKGLEWVGLITNTGGSTNYGAAVKGRATISRDNGQSTVRLQLNNLRAEDTGTYYCTRGVGSWAHGGRIDAWGHGTEVIVSSGGGGSGGGGSGGGGSRTVAAPSVFIFPPSDEQLKSGTASVVCLLNNFYPREAKVQWKVDNALQSGNSQESVTEQDSKDSTYSLSSTLTLSKADYEKHKVYACEVTHQGLSLPVTKSFNRGESGGGGSGGGGSGGGGSDIQMTQSPSSLSASVGDRVTITCQSSQSPYSNEWLSWYQQKPGKAPKLLIYRISTLASGVPSRFSGSRSGTDFTLTISSLQPEDFATYYCAGGYNFGLFLFGQGTKVEIKGQSSRSSGGGGSSGGGGSEVQLVESGGGLVQPGGSLRLSCAASGHLRRRDWMNWVRQAPGKGLEWVAAIGRSGDTYYATWAKGRFTISADTSKNTAYLQMNSLRAEDTAVYYCSRIPYFGWNNGDIWGQGTLVTVSS
On to B1, for which, in the experiment with mPDGFR-β on NIH3T3 cells, the “IC50 (nM) of relative cell viability (cellular ATP), NIH3T3 cells, bispecific complexed with cot-duo, with mPDGF-BB” value worked out at 9.7 nM; the “IC50 (nM) of relative cell viability (cellular ATP), NIH3T3 cells, bispecific complexed with cot-duo, without mPDGF-BB” value is 8.3 nM; the “IC50 (nM) of relative cell viability (cellular ATP), NIH3T3 cells, bispecific complexed with cot-duo-cot, with mPDGF-BB” value came to 30.5 nM; the “IC50 (nM) of relative cell viability (cellular ATP), NIH3T3 cells, bispecific complexed with cot-duo-cot, without mPDGF-BB” value is 20.1 nM.

B2: PRb-CC03 x cotinine scFv-Cκ-scFv fusion protein (bispecific antibody) (bispecific antibody)
chain: LTQPSSVSANPGETVKITCSGGTYNYGWYQQKSPGSAPVTVIYWNDKRPSDIPSRFSGSKSGSTGTLTITGVQAEDEAVYYCGSSDSSGLIFGAGTTLTVLGQSSRSSGGGGSSGGGGSAVTLDESGGGLQTPGGTLSLVCKASGFTFSSYAMGWVRQAPGKGLEWVAGIDTAGGTAYGPAVKGRATISRDNGQSTVRLQLNNLRAEDTATYYCTRSSYIDTWGHGTEVIVSSTSGGGGSGGGGSGGGGSRTVAAPSVFIFPPSDEQLKSGTASVVCLLNNFYPREAKVQWKVDNALQSGNSQESVTEQDSKDSTYSLSSTLTLSKADYEKHKVYACEVTHQGLSLPVTKSFNRGESGGGGSGGGGSGGGGSDIQMTQSPSSLSASVGDRVTITCQSSQSPYSNEWLSWYQQKPGKAPKLLIYRISTLASGVPSRFSGSRSGTDFTLTISSLQPEDFATYYCAGGYNFGLFLFGQGTKVEIKGQSSRSSGGGGSSGGGGSEVQLVESGGGLVQPGGSLRLSCAASGHLRRRDWMNWVRQAPGKGLEWVAAIGRSGDTYYATWAKGRFTISADTSKNTAYLQMNSLRAEDTAVYYCSRIPYFGWNNGDIWGQGTLVTVSS
B2: in the experiment with mPDGFR-β on NIH3T3 cells, the “IC50 (nM) of relative cell viability (cellular ATP), NIH3T3 cells, bispecific complexed with cot-duo, with mPDGF-BB” value was determined as 20.7 nM; the “IC50 (nM) of relative cell viability (cellular ATP), NIH3T3 cells, bispecific complexed with cot-duo, without mPDGF-BB” value worked out at 27.3 nM; the “IC50 (nM) of relative cell viability (cellular ATP), NIH3T3 cells, bispecific complexed with cot-duo-cot, with mPDGF-BB” value was determined as 50.2 nM; the “IC50 (nM) of relative cell viability (cellular ATP), NIH3T3 cells, bispecific complexed with cot-duo-cot, without mPDGF-BB” value came to 67.3 nM.

B3: PRb-CN16 x cotinine scFv-Cκ-scFv fusion protein (bispecific antibody) (bispecific antibody)
chain: LTQPSSVSANPGETVKITCSGSSSSYGWYQQKSPGSAPVTLIYENNQRPSNIPSRFSGSKSGSTGTLTITGVQAEDEAVYYCGNADRSNSAGTFGAGTTLTVLGQSSRSSGGGGSSGGGGSAVTLDESGGGLQTPGTALSLVCKASGFTFSSFNMAWVRQAPGKGLEFVGEISNTAGSTFYAPAVKGRATISRDNGQSTVRLQLNNLRAEDTAIYYCAKAAGTCYSHSCTGYIDAWGHGTEVIVSSTSGGGGSGGGGSGGGGSRTVAAPSVFIFPPSDEQLKSGTASVVCLLNNFYPREAKVQWKVDNALQSGNSQESVTEQDSKDSTYSLSSTLTLSKADYEKHKVYACEVTHQGLSLPVTKSFNRGESGGGGSGGGGSGGGGSDIQMTQSPSSLSASVGDRVTITCQSSQSPYSNEWLSWYQQKPGKAPKLLIYRISTLASGVPSRFSGSRSGTDFTLTISSLQPEDFATYYCAGGYNFGLFLFGQGTKVEIKGQSSRSSGGGGSSGGGGSEVQLVESGGGLVQPGGSLRLSCAASGHLRRRDWMNWVRQAPGKGLEWVAAIGRSGDTYYATWAKGRFTISADTSKNTAYLQMNSLRAEDTAVYYCSRIPYFGWNNGDIWGQGTLVTVSS
notes: also called anti-hPDGFR-β x cotinine scFv-Cκ-scFv
With B3, the binding result in experiment [1] and in experiment [2] was “binds” each time. The “IC50 (nM) of relative cell viability (cellular ATP), human pericyte cells, bispecific complexed with cot-duo, with hPDGF-BB” value in experiment [3] stood at 1.82 nM. For the same molecule, in experiment [3], the “IC50 (nM) of relative cell viability (cellular ATP), human pericyte cells, bispecific complexed with cot-duo, without hPDGF-BB” value stood at 2.39 nM.

B4: PRb-CC02 x cotinine scFv-Cκ-scFv fusion protein (bispecific antibody) (bispecific antibody)
chain: LTQPSSVSANPGETVKITCSGGGGSYGWYQQKSPGSAPVTVIYYNDKRPSDIPSRFSGSKSGSTGTLTITGVQAEDEAVYFCGSYNSSDSLFGAGTTLTVLGQSSRSSGGGGSSGGGGSAVTLDESGGGLQTPGGALSLVCKASGFTFSSYGMFWVRQAPGKGLEWVAGIDTGSGTNYGSAVKGRATISRDNGQSTVRLQLNNLRAEDTGTYFCTRGYAGTIDAWGHGTEVIVSSTSGGGGSGGGGSGGGGSRTVAAPSVFIFPPSDEQLKSGTASVVCLLNNFYPREAKVQWKVDNALQSGNSQESVTEQDSKDSTYSLSSTLTLSKADYEKHKVYACEVTHQGLSLPVTKSFNRGESGGGGSGGGGSGGGGSDIQMTQSPSSLSASVGDRVTITCQSSQSPYSNEWLSWYQQKPGKAPKLLIYRISTLASGVPSRFSGSRSGTDFTLTISSLQPEDFATYYCAGGYNFGLFLFGQGTKVEIKGQSSRSSGGGGSSGGGGSEVQLVESGGGLVQPGGSLRLSCAASGHLRRRDWMNWVRQAPGKGLEWVAAIGRSGDTYYATWAKGRFTISADTSKNTAYLQMNSLRAEDTAVYYCSRIPYFGWNNGDIWGQGTLVTVSS
As for B4, in the experiment with mPDGFR-β on NIH3T3 cells, the “IC50 (nM) of relative cell viability (cellular ATP), NIH3T3 cells, bispecific complexed with cot-duo, with mPDGF-BB” value came to 20.6 nM; the “IC50 (nM) of relative cell viability (cellular ATP), NIH3T3 cells, bispecific complexed with cot-duo, without mPDGF-BB” value was found to be 20.1 nM; the “IC50 (nM) of relative cell viability (cellular ATP), NIH3T3 cells, bispecific complexed with cot-duo-cot, with mPDGF-BB” value is 89 nM; the “IC50 (nM) of relative cell viability (cellular ATP), NIH3T3 cells, bispecific complexed with cot-duo-cot, without mPDGF-BB” value came out at 125 nM.

B5: PRb-CN26 x cotinine scFv-Cκ-scFv fusion protein (bispecific antibody) (bispecific antibody)
chain: LTQPSSVSANPGETVKITCSGGGSYAGSYYYGWYQQKSPGSAPVTVIYDNTNRPSNIPSRFSGSLSGSTDTLTITGVQAEDEAVYFCGGYDGISDTGIFGAGTTLTVLGQSSRSSGGGGSSGGGGSAVTLDESGGGLQTPGGGLSLVCKASGFTFSDRGIHWVRQAPGKGLEWVAGIGNTGSYTAYAPAVKGRATISRDNGQSTVRLQLNNLRAEDTATYYCAKRGFMDAGGIDAWGHGTEVIVSSTSGGGGSGGGGSGGGGSRTVAAPSVFIFPPSDEQLKSGTASVVCLLNNFYPREAKVQWKVDNALQSGNSQESVTEQDSKDSTYSLSSTLTLSKADYEKHKVYACEVTHQGLSLPVTKSFNRGESGGGGSGGGGSGGGGSDIQMTQSPSSLSASVGDRVTITCQSSQSPYSNEWLSWYQQKPGKAPKLLIYRISTLASGVPSRFSGSRSGTDFTLTISSLQPEDFATYYCAGGYNFGLFLFGQGTKVEIKGQSSRSSGGGGSSGGGGSEVQLVESGGGLVQPGGSLRLSCAASGHLRRRDWMNWVRQAPGKGLEWVAAIGRSGDTYYATWAKGRFTISADTSKNTAYLQMNSLRAEDTAVYYCSRIPYFGWNNGDIWGQGTLVTVSS
As for B5, the binding result in experiment [1] is “binds”. For the same molecule, in experiment [2], the binding result is recorded as “binds”. Besides, in experiment [3], the “IC50 (nM) of relative cell viability (cellular ATP), human pericyte cells, bispecific complexed with cot-duo, with hPDGF-BB” value is 0.87 nM and the “IC50 (nM) of relative cell viability (cellular ATP), human pericyte cells, bispecific complexed with cot-duo, without hPDGF-BB” value came out at 0.9 nM.

B6: PRb-CC01 x cotinine scFv-Cκ-scFv fusion protein (bispecific antibody) (bispecific antibody)
chain: LTQPSSVSANLGGTVKITCSGGGSYYGWYQQKSPGSAPVTLIYYNDKRPSDIPSRFSGSKSGSTGTLTITGVQAEDEAVYFCGAWDNSAGYAGFGAGTTLTVLGQSSRSSGGGGSSGGGGSAVTLDESGGGLQTPGGALSLVCKGSGFTFSSYNMGWVRQAPGKGLEFVAGISAADNSTAYGAAVDGRATISRDNGQSTVRLQLNNLRAEDTATYFCIRGGGSIDAWGHGTEVIVSSGGGGSGGGGSGGGGSRTVAAPSVFIFPPSDEQLKSGTASVVCLLNNFYPREAKVQWKVDNALQSGNSQESVTEQDSKDSTYSLSSTLTLSKADYEKHKVYACEVTHQGLSLPVTKSFNRGESGGGGSGGGGSGGGGSDIQMTQSPSSLSASVGDRVTITCQSSQSPYSNEWLSWYQQKPGKAPKLLIYRISTLASGVPSRFSGSRSGTDFTLTISSLQPEDFATYYCAGGYNFGLFLFGQGTKVEIKGQSSRSSGGGGSSGGGGSEVQLVESGGGLVQPGGSLRLSCAASGHLRRRDWMNWVRQAPGKGLEWVAAIGRSGDTYYATWAKGRFTISADTSKNTAYLQMNSLRAEDTAVYYCSRIPYFGWNNGDIWGQGTLVTVSS
As for B6, in the experiment with mPDGFR-β on NIH3T3 cells, the “IC50 (nM) of relative cell viability (cellular ATP), NIH3T3 cells, bispecific complexed with cot-duo, with mPDGF-BB” value came to 27.1 nM; the “IC50 (nM) of relative cell viability (cellular ATP), NIH3T3 cells, bispecific complexed with cot-duo, without mPDGF-BB” value worked out at 25 nM; the “IC50 (nM) of relative cell viability (cellular ATP), NIH3T3 cells, bispecific complexed with cot-duo-cot, with mPDGF-BB” value was found to be 67.2 nM; the “IC50 (nM) of relative cell viability (cellular ATP), NIH3T3 cells, bispecific complexed with cot-duo-cot, without mPDGF-BB” value turned out to be 87.6 nM.
